From the supplement of paper PMC11246515
± gives the standard deviation of the averaged measurements.

Assay: total protein half-life in vivo (active degradation + dilution); higher = more stable protein
[1] = E. coli NCM3722 delta-clpP delta-lon delta-hslV, growth: N-lim chemostat, doubling time 6 h
[2] = wild type E. coli NCM3722, growth: C-lim chemostat, doubling time 6 h
[3] = wild type E. coli NCM3722, growth: C-lim chemostat, doubling time 12 h
[4] = wild type E. coli NCM3722, growth: N-lim chemostat, doubling time 6 h
[5] = wild type E. coli NCM3722, growth: N-lim chemostat, doubling time 12 h
[6] = wild type E. coli NCM3722, growth: P-lim chemostat, doubling time 6 h
[7] = wild type E. coli NCM3722, growth: P-lim chemostat, doubling time 12 h
[8] = E. coli NCM3722 delta-clpP, growth: N-lim chemostat, doubling time 6 h
[9] = E. coli NCM3722 delta-hslV, growth: N-lim chemostat, doubling time 6 h
[10] = E. coli NCM3722 delta-lon, growth: N-lim chemostat, doubling time 6 h
[11] = E. coli NCM3722 delta-smpB, growth: N-lim chemostat, doubling time 6 h
[12] = wild type E. coli NCM3722, growth: C-lim chemostat, doubling time 3 h

| Substance | total protein half-life in vivo [1] [h] | total protein half-life in vivo [2] [h] | total protein half-life in vivo [3] [h] | total protein half-life in vivo [4] [h] | total protein half-life in vivo [5] [h] | total protein half-life in vivo [6] [h] | total protein half-life in vivo [7] [h] | total protein half-life in vivo [8] [h] | total protein half-life in vivo [9] [h] | total protein half-life in vivo [10] [h] | total protein half-life in vivo [11] [h] | total protein half-life in vivo [12] [h] |
| --- | --- | --- | --- | --- | --- | --- | --- | --- | --- | --- | --- | --- |
| MAANAFVRARIDEDLKNQAADVLAGMGLTISDLVRITLTKVAREKALPFDLREPNQLTIQSIKNSEAGIDVHKAKDADDLFDKLGI | 2.38 ± 0.28 | 0.925 ± 0.13 | 0.789 | 0.421 | 4.6 | 0.432 | 1.38 | – | – | – | – | – |
| MNKFEDIRGVAFDLDGTLVDSAPGLAAAVDMALYALELPVAGEERVITWIGNGADVLMERALTWARQERATQRKTMGKPPVDDDIPAEEQVRILRKLFDRYYGEVAEEGTFLFPHVADTLGALQAKGLPLGLVTNKPTPFVAPLLEALDIAKYFSVVIGGDDVQNKKPHPDPLLLVAERMGIAPQQMLFVGDSRNDIQAAKAAGCPSVGLTYGYNYGEAIDLSQPDVIYQSINDLLPALGLPHSENQESKND | 3.53 ± 0.37 | 5.56 ± 0.92 | 8.69 ± 0.53 | 2.87 ± 0.17 | 4.01 ± 0.23 | 4.14 ± 1 | 10.5 ± 1.2 | 3.12 ± 0.096 | 2.83 | 4.24 ± 1.1 | 3.05 ± 0.14 | 3.21 ± 0.34 |
| MKLIPRSSDISPGIDGICPGPFPPNGFTVLTDAAYGNGDCFGLYWPIGQEHKLPIVCETYHDEWRIVPAFSSIKKFEEWLEVNDDDPHENGISIEDQDFAANLFRVARKCLSTGRLDDALPLLQRATEQLPEVSEYWLALAIQYRRCKKTEAAAQAALNAYLGNWAFGVPDNKVIHLLSQAADVPNFQDDPVIQCIKEQGLDLSFGGTKENNNYPLMQMCVDTYFAQRKPLQALTLLHNYAWIMSSETTAFQERYDFNIDEWRAKFRQLCLEYFGDSRTQFT | 3.49 | 4.63 ± 0.52 | 8.76 | 3.47 ± 0.64 | 5.75 ± 0.36 | – | 9.99 | – | 3.01 | – | 3.03 ± 0.077 | 2.62 ± 0.22 |
| MKKIECACNFLMDKDAQGYIDLSDLDLTSCHFKGDVISKVSFLSSNLQHVTFECKEIGDCNFTTAIVDNVIFRCRRLHNVIFIKASGECVDFSKNILDTVDFSQSQLGHSNFRECQIRNSNFDNCYLYASHFTRAEFLSAKEISFIKSNLTAVMFDYVRMSTGNFKDCITEQLELTIDYSDIFWNEDLDGYINNIIKMIDTLPDNAMILKSVLAVKLVMQLKILNIVNKNFIENMKKIFSHCPYIKDPIIRSYIHSDEDNKFDDFMRQHRFSEVNFDTQQMIDFINRFNTNKWLIDKNNNFFIQLIDQALRSTDDMIKANVWHLYKEWIRSDDVSPIFIETEDNLRTFNTNELTRNDNIFILFSSVDDGPVMVVSSQRLHDMLNPTKDTNWNSTYIYKSRHEMLPVNLTQETLFSSKSHGKYALFPIFTASWRAHRIMNKGV | – | – | 11.2 | – | – | – | – | – | – | – | – | – |
| MAVHLLIVDALNLIRRIHAVQGSPCVETCQHALDQLIMHSQPTHAVAVFDDENRSSGWRHQRLPDYKAGRPPMPEELHDEMPALRAAFEQRGVPCWSTSGNEADDLAATLAVKVTQAGHQATIVSTDKGYCQLLSPTLRIRDYFQKRWLDAPFIDKEFGVQPQQLPDYWGLAGISSSKVPGVAGIGPKSATQLLVEFQSLEGIYENLDAVAEKWRKKLETHKEMAFLCRDIARLQTDLHIDGNLQQLRLVR | 4.94 ± 0.096 | – | 10.7 ± 0.93 | 4.2 ± 0.5 | 8.02 | 5.06 ± 0.52 | 10.7 ± 1.7 | 4.23 ± 0.28 | 4.29 | 5.14 ± 0.59 | 3.86 ± 0.59 | 2.66 ± 0.54 |
| MAMETQDIIKRSATNSITPPSQVRDYKAEVAKLIDVSTCIGCKACQVACSEWNDIRDEVGHCVGVYDNPADLSAKSWTVMRFSETEQNGKLEWLIRKDGCMHCEDPGCLKACPSAGAIIQYANGIVDFQSENCIGCGYCIAGCPFNIPRLNKEDNRVYKCTLCVDRVSVGQEPACVKTCPTGAIHFGTKKEMLELAEQRVAKLKARGYEHAGVYNPEGVGGTHVMYVLHHADQPELYHGLPKDPKIDTSVSLWKGALKPLAAAGFIATFAGLIFHYIGIGPNKEVDDDEEDHHE [P0AAJ3] | – | – | – | 3.95 | – | 6.22 | – | 4.35 | > 8 | – | – | – |
| P0CK95 | – | – | – | – | – | 6.26 ± 0.39 | 13 ± 0.41 | – | – | – | – | 2.75 |
| MVDKRESYTKEDLLASGRGELFGAKGPQLPAPNMLMMDRVVKMTETGGNFDKGYVEAELDINPDLWFFGCHFIGDPVMPGCLGLDAMWQLVGFYLGWLGGEGKGRALGVGEVKFTGQVLPTAKKVTYRIHFKRIVNRRLIMGLADGEVLVDGRLIYTASDLKVGLFQDTSAF [P0A6Q3] | 4.896 ± 0.032 | 5.626 ± 0.038 | 11.5 ± 1.6 | 5.0372 ± 0.0034 | 10.1 ± 0.12 | 5.56 ± 0.57 | 12.2 ± 0.94 | 4.99 ± 0.2 | 5.5 ± 0.67 | 5.48 ± 0.64 | 5.18 ± 0.13 | 3.03 ± 0.035 |
| MKQEVILVLDCGATNVRAIAVNRQGKIVARASTPNASDIAMENNTWHQWSLDAILQRFADCCRQINSELTECHIRGIAVTTFGVDGALVDKQGNLLYPIISWKCPRTAAVMDNIERLISAQRLQAISGVGAFSFNTLYKLVWLKENHPQLLERAHAWLFISSLINHRLTGEFTTDITMAGTSQMLDIQQRDFSPQILQATGIPRRLFPRLVEAGEQIGTLQNSAAAMLGLPVGIPVISAGHDTQFALFGAGAEQNEPVLSSGTWEILMVRSAQVDTSLLSQYAGSTCELDSQAGLYNPGMQWLASGVLEWVRKLFWTAETPWQMLIEEARLIAPGADGVKMQCDLLSCQNAGWQGVTLNTTRGHFYRAALEGLTAQLQRNLQMLEKIGHFKASELLLVGGGSRNTLWNQIKANMLDIPVKVLDDAETTVAGAALFGWYGVGEFNSPEEARAQIHYQYRYFYPQTEPEFIEEV | 5.11 | 2.56 | 1.49 | – | – | – | – | 3.99 ± 0.14 | – | – | – | 0.905 ± 0.18 |
